Experimental data published in US10369187B2, “Peptide regulators of JNK family kinases” (Vanderbilt University, priority 2017, dated 2019).

Target: T1, MKK7 (Homo sapiens, UniProt O14733)
T1 sequence (O14733 1-419): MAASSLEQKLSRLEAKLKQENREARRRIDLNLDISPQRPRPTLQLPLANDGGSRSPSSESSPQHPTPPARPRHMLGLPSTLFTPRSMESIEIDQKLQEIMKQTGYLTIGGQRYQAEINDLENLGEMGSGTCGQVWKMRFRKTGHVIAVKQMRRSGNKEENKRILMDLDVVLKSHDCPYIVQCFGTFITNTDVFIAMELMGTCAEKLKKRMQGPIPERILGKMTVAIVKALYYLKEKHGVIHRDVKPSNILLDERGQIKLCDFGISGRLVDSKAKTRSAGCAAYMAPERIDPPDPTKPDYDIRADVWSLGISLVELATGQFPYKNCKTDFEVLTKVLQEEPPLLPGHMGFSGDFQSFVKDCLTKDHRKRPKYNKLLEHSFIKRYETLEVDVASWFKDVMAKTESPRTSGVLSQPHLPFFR
Experiment: MBP pull-down of purified MKK7
Type: binding
Settings: purified GST-MKK7; peptide as MBP-fusion immobilized on amylose
Method: T1A was expressed in E. coli as an MBP-fusion and purified it on an amylose column^23. The ability of purified GST-MKK4 or GST-MKK7 (FIG. 1A) to bind MBP-T1A immobilized on an amylose column was tested in an in vitro pull-down assay, where MBP and MBP-arrestin-3 served as negative and positive controls, respectively (FIG. 1B). MBP-T1A, but not control MBP, effectively retained both kinases (FIG. 1B). […] Next, it was tested whether T1A binds the uppermost kinase in the cascade, ASK1. Because ASK1 is not available in purified form, HA-tagged ASK1 and YFP-tagged T1A (using YFP as a control) were co-expressed in COS7 cells, lysed the cells, and immunoprecipitated YFP constructs with anti-GFP antibody (FIG. 1C).
To make MBP-fusions containing arrestin-2/3 elements, the cDNAs encoding arrestin fragments were subcloned into pMal-p2T (generous gift from Dr. Keiji Tanaka, Tokyo Institute of Medical Science) between Eco RI and Xho I sites in frame with MBP, as described^23. MBP-Arr3 (full-length arrestin-3) was created by subcloning the corresponding cDNA into pMal-p2T between Eco RI and Not I sites^23. All MBP-arrestin-3 fusion proteins contained the same […] (SEQ ID NO:29) linker between MBP and arrestin-3 or its fragments. […] Eluates were analyzed by SDS-PAGE and Western blotting.

Substance	binding of MKK7 in MBP pull-down
MGDK-GTRVFKKASPNGKLTVYLGK (MGDKGTRVFKKASPNGKLTVYLGK; N-terminal MGDK; bovine) [B1A, homologous N-terminal peptide from arrestin-2, negative control]	less robust interaction
MGEKPGTRVFKKSSPNCKLTVYLGK (bovine) [T1A, first 25 residues of arrestin-3]	binds both MKKs
